Data published in patent US10766952B2, “Methods for reducing migraine frequency in a subject in need thereof” (Beth Israel Deaconess Medical Center, Inc., priority 2017, dated 2020).

What was measured:
Type in all cases: in vivo, rat
[1] = system: naïve wide-dynamic range (WDR) trigeminovascular neurons; assay: Single-unit recording of naïve central trigeminovascular neurons, WDR neurons; conditions: 30 mg/kg IV
Source text: Experiments were approved by the Beth Israel Deaconess Medical Center and Harvard Medical School standing committees on animal care, and in accordance with the U.S. National Institutes of Health Guide for the Care and Use of Laboratory Animals. Male and female Sprague-Dawley rats (250-350 g) were anesthetized with urethane (0.9-1.2 g/kg i.p.). They were fitted with an intra-tracheal tube to allow artificial ventilation (0.1 L/min of (O2), and an intra-femoral-vein cannula for later infusion of drugs. Rats were placed in a stereotaxic apparatus, and core temperature was kept at 37° C. using a heating blanket. End-tidal […] was continuously monitored and kept within physiological range (3.5-4.5 pCO2). Once stabilized, rats were paralyzed with rocuronium bromide (10 mg/ml, 1 ml/hr continuous intravenous infusion) and ventilated. For stimulation of the cranial dura later in the experiment, a 5×5-mm opening was carefully carved in the parietal and occipital bones in front and behind the lambda suture, directly above the left transverse sinus. The exposed dura was kept moist using a modified synthetic interstitial fluid (135 mM NaCl, 5 mM KCl, 1 mM MgCl2, 5 mM CaCl2, 10 mM glucose and 10 mM Hepes, pH 7.2). […]
To record neuronal activity, a tungsten microelectrode (impedance 3-4 MΩ) was lowered repeatedly into the spinal trigeminal nucleus (STN) in search of central trigeminovascular neurons receiving convergent input from the dura and facial skin. […] Responses to mechanical stimulation of the skin were determined by applying brief (10 s) innocuous and noxious stimuli to the most sensitive portion of the cutaneous receptive field. […] Real-time waveform discriminator was used to create and store a template for the action potential evoked in the neuron under study by electrical pulses on the dura; spikes of activity matching the template waveform were acquired and analyzed online and offline using Spike 2 software (CED, Cambridge, UK). […]

[2] = system: first-order trigeminovascular neurons (A-delta and C-type meningeal nociceptors); assay: Single-unit recording of first-order trigeminovascular neurons in the trigeminal ganglion activated by CSD
Protocol: CSD was induced by pinprick 4 hours after drug/isotype infusion.

[3] = system: central trigeminovascular neurons in the medullary dorsal horn; assay: Activation of central trigeminovascular neurons by picrotoxin-induced seizure; conditions: 30 mg/kg intravenously four hours before induction of seizure
Source text: Cortical electrodes were used to trace the magnitude, extent and progression of epileptiform seizures.
Surgical preparation and single-unit recording. Single-unit recordings were obtained from neurons in the trigeminal ganglion and dorsal horn as described in previous studies (Burstein et al. (1998) J. Neurophysiol. 79: 964-82; Strassman and Levy (2006) J. Neurophysiol. 95: 1298-306; Strassman et al. (1996) Nature 384: 560-4; Zhang et al. (2010) J. Neurosci. 30: 8807-14; and Zhang et al. (2011) Ann. Neurol. 69: 855-65). Experiments were done in adult Sprague-Dawley rats (250 g to 350 g). Animals were anesthetized with urethane (1.2-1.5 g/kg), artificially ventilated with oxygen, and paralyzed. Body temperature was controlled, and end-tidal CO2 and oxygen saturation was monitored. For ganglion recordings, four separate craniotomies were made: over the contralateral cortex, to advance the microelectrode; over the ipsilateral parietal cortex, and the ipsilateral occipital cortex, for application of the picrotoxin and recording of electrocorticogram activity; and over the ipsilateral transverse sinus, for electrical and mechanical stimulation of dural afferents, and lidocaine application. For dorsal horn recording, the same craniotomies were made over the ipsilateral cortex and the ipsilateral transverse sinus, but no contralateral craniotomy was made. Instead, a laminectomy was made to expose the upper cervical spinal cord (C1-2) for microelectrode recording. In both the trigeminal ganglion and the dorsal horn recording experiments, the search stimulus for finding dura-sensitive neurons is single-shock electrical stimulation applied to the dura covering the transverse sinus.
Seizure induction and electrocorticogram recording. […] For verification of seizure induction, cortical activity was recorded with a glass micropipette (0.9% saline, ˜1 megohm, 7 μm tip) placed just below the surface of the cerebral cortex, at the parietal and the occipital site. […]

B1: fremanezumab (antibody)
heavy: EVQLVESGGGLVQPGGSLRLSCAASGFTFSNYWISWVRQAPGKGLEWVAEIRSESDASATHYAEAVKGRFTISRDNAKNSLYLQMNSLRAEDTAVYYCLAYFDYGLAIQNYWGQGTLVTVSSASTKGPSVFPLAPCSRSTSESTAALGCLVKDYFPEPVTVSWNSGALTSGVHTFPAVLQSSGLYSLSSVVTVPSSNFGTQTYTCNVDHKPSNTKVDKTVERKCCVECPPCPAPPVAGPSVFLFPPKPKDTLMISRTPEVTCVVVDVSHEDPEVQFNWYVDGVEVHNAKTKPREEQFNSTFRVVSVLTVVHQDWLNGKEYKCKVSNKGLPSSIEKTISKTKGQPREPQVYTLPPSREEMTKNQVSLTCLVKGFYPSDIAVEWESNGQPENNYKTTPPMLDSDGSFFLYSKLTVDKSRWQQGNVFSCSVMHEALHNHYTQKSLSLSPGK
light: EIVLTQSPATLSLSPGERATLSCKASKRVTTYVSWYQQKPGQAPRLLIYGASNRYLGIPARFSGSGSGTDFTLTISSLEPEDFAVYYCSQSYNYPYTFGQGTKLEIKRTVAAPSVFIFPPSDEQLKSGTASVVCLLNNFYPREAKVQWKVDNALQSGNSQESVTEQDSKDSTYSLSSTLTLSKADYEKHKVYACEVTHQGLSSPVTKSFNRGEC
notes: humanized anti-CGRP antagonist antibody, vectors ATCC PTA-6867 and PTA-6866
- spontaneous activity of WDR neurons ([1]; female rats): did not reduce the spontaneous activity
- sensitivity of WDR neurons to mechanical stimulation of the dura ([1]; male and female rats): not the WDR neurons
- responses of WDR neurons to innocuous (brush, pressure) or noxious (pinch) mechanical stimulation of the skin or the cornea ([1]; male or female rats): did not alter the responses
- activation of meningeal nociceptors by CSD ([2]; FIGS. 20A and 20B): prevents the activation of most a-delta and some C-type meningeal nociceptors
- a-delta fibers activated by CSD ([2]; male rats, 30 mg/kg IV 4 hours before CSD, FIG. 21A): 14%
- C-fibers activated by CSD ([2]; male rats, 30 mg/kg IV 4 hours before CSD, FIG. 21B): 23%
- neurons tested that were activated by CSD ([2]; male rats, 30 mg/kg IV 4 hours before CSD, all neurons): 20%
- neurons activated by the seizure [3]: 15%
- neurons activated by the seizure (activated/tested) [3]: 2/13
- activation of central trigeminovascular neuron by seizure ([3]; FIG. 24): prevented the activation of a central trigeminovascular neuron
